One assay has as its target T1, Human CLEC-7A (Dectin-1) (human, UniProt Q9BXN2-2 66-201, limits assumed).
T1 construct: Bought protein; also called C-type lectin domain family 7 member A
T1 sequence (looked up): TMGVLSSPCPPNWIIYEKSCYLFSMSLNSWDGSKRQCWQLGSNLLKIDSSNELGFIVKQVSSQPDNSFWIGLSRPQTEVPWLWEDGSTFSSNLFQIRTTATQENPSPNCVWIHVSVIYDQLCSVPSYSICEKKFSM
Nature of the assay: IgG binding ELISA on coated antigen, absorbance at 450 nm. (An ELISA detects its analyte on a solid surface through an enzyme-linked reagent.)

For another assay, the target named is T2, Human CLEC-1A (human, UniProt Q8NC01 74-280, limits assumed).
T2 construct: Bought protein; also called C-type lectin domain family 1 member A
T2 sequence (looked up): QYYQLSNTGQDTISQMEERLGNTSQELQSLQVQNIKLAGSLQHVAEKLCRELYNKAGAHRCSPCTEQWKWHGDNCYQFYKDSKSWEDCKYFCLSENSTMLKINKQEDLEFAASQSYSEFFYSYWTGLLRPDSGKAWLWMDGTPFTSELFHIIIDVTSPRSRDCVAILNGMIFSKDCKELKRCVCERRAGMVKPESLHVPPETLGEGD
The assay is described as above.

A further assay has as its target T3, Human CLEC-4L (DC-SIGN) (human, UniProt Q9NNX6 62-404).
T3 construct: Bought protein; also called C-type lectin domain family 4 member L
T3 sequence (looked up): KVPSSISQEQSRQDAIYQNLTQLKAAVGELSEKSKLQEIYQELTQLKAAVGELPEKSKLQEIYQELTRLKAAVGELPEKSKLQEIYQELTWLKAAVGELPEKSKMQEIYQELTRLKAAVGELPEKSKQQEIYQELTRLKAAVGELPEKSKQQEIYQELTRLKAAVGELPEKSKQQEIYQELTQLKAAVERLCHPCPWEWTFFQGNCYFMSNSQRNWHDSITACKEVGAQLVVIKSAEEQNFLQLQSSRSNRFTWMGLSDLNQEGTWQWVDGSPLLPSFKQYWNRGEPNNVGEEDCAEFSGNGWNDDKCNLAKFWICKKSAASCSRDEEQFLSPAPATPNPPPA
The assay is described as above.

The target of another assay is T4, Human CLEC-1B (CLEC-2) (human, UniProt Q9P126 58-229, limits assumed).
T4 construct: Bought protein; also called C-type lectin domain family 1 member B
T4 sequence (Q9P126 58-229 limits assumed): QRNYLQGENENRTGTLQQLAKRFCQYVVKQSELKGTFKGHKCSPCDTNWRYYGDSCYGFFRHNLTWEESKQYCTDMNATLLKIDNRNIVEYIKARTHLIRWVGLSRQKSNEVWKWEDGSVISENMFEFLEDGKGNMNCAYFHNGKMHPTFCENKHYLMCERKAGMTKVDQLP
Described as above.

In the next assay the target is T5, Human SR-A1 (MSR) (human, UniProt P21757 77-451).
T5 construct: Bought protein; also called Macrophage scavenger receptor types I and II
T5 sequence (looked up): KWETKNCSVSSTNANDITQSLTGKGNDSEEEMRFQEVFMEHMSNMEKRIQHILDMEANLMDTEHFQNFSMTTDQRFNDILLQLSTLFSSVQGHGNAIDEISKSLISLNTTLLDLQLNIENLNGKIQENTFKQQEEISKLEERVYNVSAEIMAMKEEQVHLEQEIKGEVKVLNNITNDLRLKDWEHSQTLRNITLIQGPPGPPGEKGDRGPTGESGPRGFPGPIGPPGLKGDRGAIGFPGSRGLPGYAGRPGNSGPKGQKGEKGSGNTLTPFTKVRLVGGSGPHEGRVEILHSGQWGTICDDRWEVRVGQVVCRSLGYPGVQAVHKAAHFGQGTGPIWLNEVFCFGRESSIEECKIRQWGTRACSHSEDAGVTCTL
The assay is described as above.

Another assay has as its target T6, Human SR-B3 (CD36) (human, UniProt P16671 30-439).
T6 construct: Bought protein; also called Platelet glycoprotein 4
The description is as above.

In assay [1] the target is T7, mouse LOX1-(FlagHis) extracellular domain (mouse, UniProt Q9EQ09 55-363).
T7 construct: extracellular domain
T7 sequence (Q9EQ09 55-363): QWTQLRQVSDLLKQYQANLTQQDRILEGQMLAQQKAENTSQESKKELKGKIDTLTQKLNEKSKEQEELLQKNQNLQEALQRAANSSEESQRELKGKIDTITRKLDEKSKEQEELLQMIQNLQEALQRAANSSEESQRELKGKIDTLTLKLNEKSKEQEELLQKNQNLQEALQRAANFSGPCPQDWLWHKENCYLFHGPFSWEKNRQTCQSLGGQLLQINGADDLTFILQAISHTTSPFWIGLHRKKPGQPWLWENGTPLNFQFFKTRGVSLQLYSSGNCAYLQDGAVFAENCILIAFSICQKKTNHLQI
Kind of assay: IgG binding ELISA on coated antigen, europium anti-human IgG detection.

For assay [2], the target named is T8, rat LOX1-(FlagHis) extracellular domain (rat, UniProt O70156 55-364).
T8 construct: extracellular domain
T8 sequence (O70156 55-364): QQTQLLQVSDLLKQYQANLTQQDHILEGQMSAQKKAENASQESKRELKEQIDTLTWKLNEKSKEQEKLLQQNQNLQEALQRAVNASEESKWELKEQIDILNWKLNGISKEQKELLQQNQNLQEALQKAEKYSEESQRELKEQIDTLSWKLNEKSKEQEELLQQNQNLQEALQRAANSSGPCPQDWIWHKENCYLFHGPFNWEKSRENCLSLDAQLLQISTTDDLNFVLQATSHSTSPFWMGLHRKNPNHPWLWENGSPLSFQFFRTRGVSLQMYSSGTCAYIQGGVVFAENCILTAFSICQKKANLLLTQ
Described as above.

The target of assay [3] is T9, rabbit LOX1-(FlagHis) extracellular domain (rabbit, UniProt Q9XTA8 55-274).
T9 construct: extracellular domain
T9 sequence (Q9XTA8 55-274): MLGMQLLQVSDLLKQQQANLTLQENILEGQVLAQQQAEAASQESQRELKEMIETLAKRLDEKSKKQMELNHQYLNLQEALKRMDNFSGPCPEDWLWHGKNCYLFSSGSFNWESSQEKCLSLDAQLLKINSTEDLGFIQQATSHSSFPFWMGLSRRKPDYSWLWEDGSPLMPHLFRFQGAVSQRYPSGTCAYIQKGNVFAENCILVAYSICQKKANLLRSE
Described as above.

Assay [4] deals with T10, human LOX1 on cells (human LOX1 transfected CHO TREX cells) (human, UniProt P78380 1-273). Kind of assay: cell-based or functional assay.
Assay [5] deals with T11, cynomolgus LOX1-(FlagHis) extracellular domain (cynomolgus monkey, UniProt A0A2K5VQ73 76-291).
T11 construct: extracellular domain; Made in HEK293 EBNA cells; also called cynoLOX1; cyLOX
Nature of the assay: Biacore, antibody captured on protein G, LOX1 ECD as analyte. For orientation: In SPR one partner is held on a chip, and binding of the other changes the refractive index at the surface.

The target of assay [6] is T10, human LOX1 on cells (human LOX1 …). Kind of assay: competition with DyLight 649 AGE-BSA on hLOX1 CHO TREX cells (FMAT), mean.
The target in assay [7] is T12, recombinant human LOX1 (R&D Systems) (human, UniProt P78380 61-273). Nature of the assay: competition with biotin CRP on immobilised recombinant hLOX1 (DELFIA), mean.
The target in assay [8] is T13, human LOX1 SNP K167N variant on cells (K167N SNP transfected CHO TREX cells) (human, UniProt P78380 1-273).
T13 construct: whole, on cells; also called hLOX1 K167N; K167N hLOX1 CHO
Kind of assay: competition with DyLight 649 oxLDL on K167N hLOX1 CHO TREX cells (FMAT), mean.

The target in assay [9] is T10, human LOX1 on cells (human LOX1 …). Nature of the assay: competition with DyLight 649 oxLDL on human LOX1 CHO TREX cells, FMAT.
For assay [10] the target is unchanged. Nature of the assay: competition with DyLight 649 oxLDL on hLOX1 CHO TREX cells (FMAT), mean; mean of n = 3.
Assay [11] concerns the target T12, recombinant human LOX1 (R&D Systems). Nature of the assay: competition with biotin CRP on plate-bound recombinant human LOX1, DELFIA.
Assay [12] has as its target T13, human LOX1 SNP K167N variant on cells …. Kind of assay: competition with DyLight 649 oxLDL on human LOX1 K167N CHO TREX cells, FMAT.

Changes are numbered by the printed parent chain. In names and notes the source's numbering stands.

T6 sequence (P16671 30-439 limits assumed): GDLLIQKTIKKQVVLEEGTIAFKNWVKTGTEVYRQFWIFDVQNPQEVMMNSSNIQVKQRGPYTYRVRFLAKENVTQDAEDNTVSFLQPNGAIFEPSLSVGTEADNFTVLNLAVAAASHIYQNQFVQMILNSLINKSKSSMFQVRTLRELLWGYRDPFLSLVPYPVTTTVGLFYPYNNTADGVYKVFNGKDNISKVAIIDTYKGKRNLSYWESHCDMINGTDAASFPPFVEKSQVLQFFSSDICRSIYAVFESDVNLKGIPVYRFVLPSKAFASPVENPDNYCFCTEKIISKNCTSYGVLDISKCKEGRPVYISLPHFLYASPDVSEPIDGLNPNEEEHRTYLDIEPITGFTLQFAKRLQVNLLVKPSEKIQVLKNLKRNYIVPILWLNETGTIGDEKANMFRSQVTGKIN

B1: LX6960073_gl IgG1-TM (antibody, V domains shown)
VH: EVQLVESGGGLVQPGRSLRLSCAASGFTSDDYAMHWVRQAPGKGLEWVSGISWNSGSIGYADSVKGRFTISRDNAKNSLYLQMNGLRAEDTAVYYCAREGSWNYDALDIWGQGTMVTVSS
VL: QSALTQPASVSGSPGQPITISCTGTSSDVGGYNYVSWYQQHPGKAPKLMIYDVSKRPSGVSNRFSGSKSGNTASLTISGLQAEDEADYYCMGGMGRSTNWVFGGGTKLTVL
notes: Whole human IgG1-TM, germlined
Turning to B1, the binding result with Human CLEC-7A (Dectin-1), with Human CLEC-1A, with Human CLEC-4L (DC-SIGN), with Human CLEC-1B (CLEC-2), in the assay with Human SR-A1 (MSR) and with Human SR-B3 (CD36) was “no binding” each time. Besides, the binding result in assay [1], in assay [2] and in assay [3] was “no binding (tested: 10 µg/mL (single concentration))” in each case.

B2: LX5140110 IgG1-TM (antibody, V domains shown)
VH: QVQLVQSGAEVKKPGASVKVSCKVSGYTLTELSMHWVRQAPGKGLEWMGGFDPEDFKYHTHQKFQGRVTMTEDTSTDTAYMELSSLRSEDTAVYYCALVWGTQGKGVRGWDYYYGMDVWGQGTTVTVSS
VL: QSVVTQPPSVSGAPGQRVTISCTGSSSNIGAGYDVHWYQQLPGTAPKLLIYGNSNRPSGVPDRFSGSKSGTSASLAITGLQAEDEADYYCQSYDSSLSGWVFGGGTKLTVL
notes: Whole human IgG1-TM (L234F/L235E/P331S); also called LOX514110; LOX514_110
As usually defined, the Kd is the constant that tells how readily two partners part at equilibrium. As a reminder, the koff is a measure of how fast the partners let go of each other. A lower koff goes with a long-lived complex. A word on the kon: it is the second-order rate constant of association. What is called IC50 is the midpoint of a concentration-inhibition curve. B2: the “ROS ASSAY (IC50, mean)” value in assay [4] was determined as 1.98 nM. Moreover, in [4], the “oxLDL/hLOX1 CHO Internalisation (IC50, mean)” value is 312 pM. In assay [5], this molecule came in with a Kd of 0.154 nM. In addition, the koff in assay [5] was 0.000168 s⁻¹. For the same molecule, the kon in assay [5] came out at 1.09e+06 M⁻¹ s⁻¹. The binding result with Human CLEC-7A (Dectin-1), in the assay with Human CLEC-1A, in the assay with Human CLEC-4L (DC-SIGN), with Human CLEC-1B (CLEC-2), in the assay with Human SR-A1 (MSR) and with Human SR-B3 (CD36) was “no binding” each time. The results for the binding result in assay [1], in [2] and in assay [3] were “no binding (tested: 10 µg/mL (single concentration))”, “no binding (tested: 10 µg/mL (single concentration))” and “binds”, respectively. Further, the IC50 in assay [6] stood at 0.0207 nM; in assay [7], 5.02 nM; in assay [8], 0.492 nM; in assay [10], 0.105 nM. The entries for the “IC50 (read off the curve)” value in [9], in assay [11] and in [12] were roughly 1 nM, roughly 5 nM and roughly 400 pM, respectively.

B3: LX5140108 IgG1-TM (antibody, V domains shown)
VH: B2 VH with F56W, K57S, Y58N, T60V, H61S, A97L, L98T, V99S, W100T, T102R
VL: B2 VL
notes: Whole human IgG1-TM (L234F/L235E/P331S)
Consider B3, for which the binding result in the assay with Human CLEC-7A (Dectin-1), with Human CLEC-1A, with Human CLEC-4L (DC-SIGN), with Human CLEC-1B (CLEC-2), in the assay with Human SR-A1 (MSR) and in the assay with Human SR-B3 (CD36) was “no binding” in each case. The figures for the binding result in [1], in [2] and in assay [3] were “no binding (tested: 10 µg/mL (single concentration))”, “no binding (tested: 10 µg/mL (single concentration))” and “binds”, respectively.

B4: LX5140092_N>D IgG1-TM (antibody, V domains shown)
VH: B2 VH with F56W, T60L, H61S, L98T, V99P, W100D, Q103H, G104Q, K105G
VL: B2 VL
notes: Whole human IgG1-TM; Heavy chain N96D (Kabat) variant of LX5140092; also called LX5140092_D
With B4, the binding result with Human CLEC-7A (Dectin-1), in the assay with Human CLEC-1A, in the assay with Human CLEC-4L (DC-SIGN), in the assay with Human CLEC-1B (CLEC-2), with Human SR-A1 (MSR) and with Human SR-B3 (CD36) was “no binding” in each case. Also, the binding result in assay [1] was “no binding (tested: 10 µg/mL (single concentration))”; in assay [2], “no binding (tested: 10 µg/mL (single concentration))”; in [3], “binds”.

B5: LX5140093_N>D IgG1-TM (antibody, V domains shown)
VH: B2 VH with F56W, K57A, T60Q, H61A, L98T, V99P, W100D, T102Q
VL: B2 VL with L97H, S98R, G99A, V101A
notes: Whole human IgG1-TM; Heavy chain N96D (Kabat) variant of LX5140093; also called LX5140093_D
Take B5: the binding result with Human CLEC-7A (Dectin-1), with Human CLEC-1A, with Human CLEC-4L (DC-SIGN), with Human CLEC-1B (CLEC-2), in the assay with Human SR-A1 (MSR) and with Human SR-B3 (CD36) was “no binding” in each case. For the same molecule, the binding result in [1], in assay [2] and in [3] was “no binding (tested: 10 µg/mL (single concentration))” throughout.
